The text below walks through data of paper PMC6182141, “Lytic gene expression in the temperate bacteriophage GIL01 is activated by a phage-encoded LexA homologue”.

Substitutions are numbered along the chain they refer to.

Data set [1] concerns the target T1, gp7 (Bacillus thuringiensis phage GIL01) (UniProt Q7WSG2).
T1 sequence: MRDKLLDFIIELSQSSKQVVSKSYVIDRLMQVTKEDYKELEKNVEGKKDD
The experiment in a line: EMSA. The following applies: SPR: 25 mM Tris-HCl pH 7.4, 140 mM NaCl, 5 mM EDTA, 2 mM DTT, 0.1 mg/ml BSA, 0.005% P20, 25 C; EMSA and footprinting buffers as in cited work. For orientation: In EMSA bound probe runs differently from free probe, usually more slowly.

The target in data set [2] is T2, gp6 (Bacillus thuringiensis phage GIL01, UniProt Q5ILC6).
T2 sequence: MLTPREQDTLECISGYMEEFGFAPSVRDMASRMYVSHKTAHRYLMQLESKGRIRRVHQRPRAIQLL
The experiment in a line: SPR; SPR: 25 mM Tris-HCl pH 7.4, 140 mM NaCl, 5 mM EDTA, 2 mM DTT, 0.1 mg/ml BSA, 0.005% P20, 25 C; EMSA and footprinting buffers as in cited work. The following applies: protein: recombinant, tags: N-terminal His6 + thrombin site, chain copies: 2, label: 3'-biotin-TEG on S1 capture oligo, 5' overhang 15 nt annealed to immobilized S1 (S39). Background: In SPR one partner is held on a chip, and binding of the other changes the refractive index at the surface.

In data set [3] the target is T3, gp6 K38A (Bacillus thuringiensis phage GIL01, UniProt Q5ILC6 1-66, K38A).
T3 sequence: T2 sequence with K38A
In words: SPR; 2.34-150 nM; SPR: 25 mM Tris-HCl pH 7.4, 140 mM NaCl, 5 mM EDTA, 2 mM DTT, 0.1 mg/ml BSA, 0.005% P20, 25 C; EMSA and footprinting buffers as in cited work. The following applies: protein: recombinant; tags: N-terminal His6 + thrombin site; chain copies: 2; label: 3'-biotin-TEG on S1 capture oligo; 36 bp duplex, 5' overhang 15 nt annealed to immobilized S1 (S39).

Data set [4] deals with T2, gp6. In words: SPR; gp6 2.34-150 nM (Fig. 6D); SPR: 25 mM Tris-HCl pH 7.4, 140 mM NaCl, 5 mM EDTA, 2 mM DTT, 0.1 mg/ml BSA, 0.005% P20, 25 C; EMSA and footprinting buffers as in cited work. The following applies: protein: recombinant; tags: N-terminal His6 + thrombin site; chain copies: 2; label: 3'-biotin-TEG on S1 capture oligo; 36 bp duplex, 5' overhang 15 nt annealed to immobilized S1 (S39).

Regarding “TGTTGAACAAGGAATAGTAGAAAAGGACTAGCAAAGTTGCTAGTCTTTTTTATTTGTCCAAAATGACACACGTGTGACGTTATGCGGAACACTCGTTCGTATTATAGTATACATATAGCGAACAAACATTCGATAAGGAGTGTGACAAAGTGGATGCTTTAACGGAACTAATCATAGCTAACAATAAAGTGGAAATGCTT (double strand) [P3 fragment with dinBox2 and dinBox3 (EMSA7/EMSA10)]”, in data set [1], the binding entry is on record as “no binding”.

B1: B23_Lwt (-35, dinBox2, dinBox3) (dsDNA)
DNA 1: GTTACTACTCGAGCGATTTGTCCAAAATGACACACGTGTGACGTTATGCGGAACACTCGTTCGTATTATAGTATACATATAGCGAACAAACATTCGATAAGGAG
DNA 2: CTCCTTATCGAATGTTTGTTCGCTATATGTATACTATAATACGAACGAGTGTTCCGCATAACGTCACACGTGTGTCATTTTGGACAAAT
As to B1, the binding result in data set [2] (89 bp duplex) is reported as “binds”.

B2: B23_Swt (gp6 site) (dsDNA)
DNA 1: GTTACTACTCGAGCGATTTGTCCAAAATGACACACGTGTGACGTTATGCGG
DNA 2: CCGCATAACGTCACACGTGTGTCATTTTGGACAAAT
With B2, the binding result in data set [3] is “no binding”; in data set [4], “binds”.

B3: B23_Smns (triple mutant gp6 site) (dsDNA)
DNA 1: B2 DNA 1 with G29T, A32C, G38A
DNA 2: B2 DNA 2 with C14T, T20G, C23A
Consider B3, for which, in data set [2] (36 bp duplex), the binding result was “no binding”.
